Laboratory results published in patent US20130171217A1, “ENZYMATIC PERACID GENERATION FOR USE IN SKIN CARE PRODUCTS” (E I DU PONT DE NEMOURS AND COMPANY, priority 2010, published 2013).
Blank lines part the entries; values can stand above or below the molecule they belong to.

Tests used:
[1] = Retention of perhydrolase on hair detected by hydrolase activity; assay type: binding
Procedure: For hair binding experiments brown hair tresses (International Hair Importers and Products, Glensdale N.Y.) were used. The hair was washed with 2% SLES, rinsed extensively with deionized water and air dried.
Around 20 mg of 1 cm brown hair fragments was added in a 1.8-mL microfuge tube. Hydrolase assay buffer (1.2 mL) as added to the hair followed by the addition of the perhydrolase enzymes to the solution. The enzymes were allowed to bind the hair for 30 min with gentle agitation (24 rpm) on an Adams Nutator (model 1105, Becton Dickinson, Franklin Lakes, N.J.). No enzyme controls, with hair and without hair, were included in the binding experiment to account for non-enzymatic hydrolysis of the pNPA hydrolase reagent. After the binding step, a 1.0-mL aliquot of the binding buffer was transferred to a new tube to quantitate the amount of unbound enzyme. Additional binding buffer was removed and the hair fragments were washed 4 times with 1 mL of 1% TWEEN®-20 in hydrolase buffer, followed by 2 washes with 1 mL each in hydrolase buffer. The hair fragments were then resuspended in 1 mL of hydrolase assay and the hydrolase activity that remained bound to the hair was measured. The C277S (“PAH”) variant of Thermotoga maritima perhydrolase (SEQ ID NO: 293) was used as a control for an un-targeted perhydrolase.

[2] = Perhydrolase activity remaining bound to hair, ABTS assay; assay type: binding, human; details: 50 μg/mL
Procedure: Ten mg of human hair was submerged in 2 mL of a binding solution containing 50 μg/mL of the Thermotoga maritima perhydrolase targeted to hair via the hair binding peptide HC263 (C277S-HC263; SEQ ID NO: 288; also referred to herein as “HC1121”) in 50 mM pH 7.2 potassium phosphate buffer containing 5% of the test surfactant. The test surfactants were two nonionic surfactants: TWEEN®-20 (Sigma, St Louis, Mo.), and TRITON®-X 100 (Aldrich, St Louis, Mo.), and two ionic surfactants: CHEMBETAINE™ CAD (Cocamidopropyl betaine; Lubrizol, Wickliffe, Ohio) and RHODAPEX® ES-2K (sodium laurel ether sulfate; Rhodia Novecare, Cranbury, N.J.).
Hair was incubated in the binding solution at room temperature (˜22° C.) with gentle agitation for 30 minutes, at which time the solution was removed by aspiration and the hair rinsed with 1% TWEEN®-20 in 50 mM pH 7.2 potassium phosphate buffer. The hair was removed from the tube, blotted dry with paper towel, and transferred to a new set of tubes. The hair was rinsed once with 1% TWEEN®-20 in 50 mM pH 7.2 potassium phosphate buffer and then rinsed three times with 50 mM pH 7.2 potassium phosphate buffer. Perhydrolase activity remaining bound to the hair was determined by the ABTS assay.
The ABTS assay was performed as follows: hair samples treated as described above were transferred to new 2-mL microcentrifuge tubes (Eppendorf Protein LoBind; Eppendorf North America, Hauppauge, N.Y.) To each tube was added 480 μL of PAH buffer (50 mM potassium phosphate, pH 7.2), 14 μL of 39% hydrogen peroxide (Sigma 3410), and 6 μL triacetin (Sigma-Aldrich W200700). The perhydrolase reaction was allowed to proceed for 10 minutes at room temperature (˜22-25° C.). The reaction was stopped by diluting aliquots 10×, 100× and 1000× with 10 mM phosphoric acid. For detection 50 μL of 1 M acetic acid, 50 μL of 40 mg/mL potassium iodide, and 50 μL of 4 mM ABTS (2,2′-azino-bis(3-ethylbenzthiazoline-6-sulphonic acid; Sigma, St Louis, Mo.) were added to 50 μL of the above dilutions. Color was allowed to develop for 10 minutes and read in a spectrophotometer at 405 nm. Values from no-enzyme controls were subtracted to yield values attributable only to enzyme activity. A standard curve of OD 405 nm vs PAA concentration in ppm yielded a conversion factor of 8.75, such that an OD 405 nm of 1.0 corresponded to approximately 8.75 ppm PAA. This value was then multiplied by the appropriate dilution to arrive at the PAA concentration in the perhydrolase reaction.
The Thermotoga maritima perhydrolase targeted to hair via the hair binding peptide HC263 (C277S-HC263; SEQ ID NO: 288) was diluted to 50 μg/mL in a solution of 5% PEG-80 sorbitan laurate in 100 mM citrate-phosphate buffer adjusted to pH 4.9, pH 5.5, pH 6.0, or pH 7.0. Ten mg of human hair was added to 2 mL of the above formulations and incubated with gentle agitation for 5 minutes at room temperature to allow enzyme binding to hair. A no-enzyme control sample was included with each pH. After binding, the binding solution was removed by aspiration and the hair was washed with 2 mL of 1% TWEEN®-20 in 50 mM pH 7.2 potassium phosphate buffer. The hair was removed from the tube, blotted dry with paper towel, and transferred to a new set of tubes. The hair was rinsed once with 1% TWEEN®-20 in 50 mM pH 7.2 potassium phosphate buffer and then rinsed three time with 50 mM pH 7.2 potassium phosphate buffer. Perhydrolase activity remaining bound to the hair was determined by the ABTS assay. The results are given as ppm PAA produced at 10 minutes (after subtraction of the no-enzyme control values)
The Thermotoga maritima perhydrolase targeted to hair via the hair binding peptide HC263 (C277S-HC263; SEQ ID NO: 288) was diluted to 50 μg/mL in a solution of 5% PEG-80 sorbitan laurate in 100 mM citrate-phosphate buffer adjusted to pH 6.0. […]

[3] = Single fiber tensile strength and bleaching start after two-step enzymatic application; details: two-step with buffer rinse
Procedure: Hair samples were cut into pieces 4-inches in length. The denier number (liner mass density) of each hair fiber was measured by Textechno Vibromat Instrument (Textechno Herbert Stein GmbH & Co. KG; Germany). The hair fibers were tested according to ASTM D 3822-01 (“Tensile Properties of Single Textile Fibers”; ASTM International, West Conshohocken, Pa., 2001), on an Instron testing system (Instron Model 1122 Tester; Instron, Mass.) at about 70° F. (approximately 21° C.) and 65% relative humidity. The treated area of the hair sample was placed in the middle of the gauge and both ends were gripped on the test heads. Both fiber ends were attached on a piece of tape, respectively, for easy handling and gripping on the test heads. The test used 2-inch (5.1 cm) gauge length, […], and 1.2 inch/min (3 cm/min) pulling rate. The force-strain curve of the fiber was recorded during the test. The tenacity at maximum (gf/den) was calculated by dividing maximum force (gf) by denier number (den). Note that (gf/den)/11.33=Newtons/tex (N/tex).
In a two-step application, the hair strands are first treated with perhydrolase solutions to allow the enzyme to bind hair. The hair strands are then dried or rinsed with buffer and dried. The rinse step is intended to remove excess unbound enzyme from the hair. The hair strands are soaked in triacetin and H2O2 solutions. The application is repeated for multiple times.
One experiment was carried out with C277S-HC263 and untargeted T. maritima variant C277S using the following protocol: • 1. Enzyme solutions comprising 0.5 mg/mL enzyme in 50 mM phosphate buffer (pH 8) were made with or without 10 wt % urea. • 2. Seven (7) hair strands were soaked in 0.2 mL of an enzyme solution for 10 min and then dried under N2 without prior rinsing. • 3. The hair strands were then soaked in 0.2 mL of a pH 8 solution containing 100-mM triacetin and 250-mM H2O2 for 15 min, dried, then rinsed with DI water and then dried again. • 4. Steps 2-3 were repeated up to 15 times.
Another experiment was carried out with C277S-HC263 (SEQ ID NO: 288), CPAH-HC263 (SEQ ID NO: 294), CPAH-HC1010 (SEQ ID NO: 295) and untargeted C277S using the following protocol: • 1. Enzyme solutions comprising 1.0 mg/mL enzyme in 50 mM phosphate buffer (pH 6) were prepared. For solutions containing two enzymes, the concentration of each enzyme was approximately 0.5 mg/mL. • 2. Seven (7) hair strands were soaked in 0.2 mL of an enzyme solution for 10 min, rinsed with 50 mM phosphate buffer (pH 6), and then dried under N2. • 3. The dried hair strands were then soaked into 0.2 mL of 50 mM phosphate buffer solution (pH 8) comprising 100 mM triacetin and 250 mM H2O2 for 15 min, dried, then rinsed with DI water and then dried again. • 4.

[4] = pH 6.0, binding 1 min, at 10 minutes

Activity in the first TWEEN®-20 wash ([1]; hydrolase activity, 1% TWEEN®-20): 20%
Activity retained on hair after 4 TWEEN® 20 washes ([1]; hydrolase activity, 4 washes 1% TWEEN®-20 and 2 buffer washes): 41%
Activity unbound ([1]; hydrolase activity, ~20 mg hair, binding 30 min): 20%
B1: C277S-HC1010: C277S variant of Thermotoga maritima perhydrolase fused via a flexible linker to hair-binding domain HC1010 (protein)
chain: MAFFDLPLEELKKYRPERYEEKDFDEFWEETLAESEKFPLDPVFERMESHLKTVEAYDVTFSGYRGQRIKGWLLVPKLEEEKLPCVVQYIGYNGGRGFPHDWLFWPSMGYICFVMDTRGQGSGWLKGDTPDYPEGPVDPQYPGFMTRGILDPRTYYYRRVFTDAVRAVEAAASFPQVDQERIVIAGGSQGGGIALAVSALSKKAKALLCDVPFLCHFRRAVQLVDTHPYAEITNFLKTHRDKEEIVFRTLSYFDGVNFAARAKIPALFSVGLMDNISPPSTVFAAYNYYAGPKEIRIYPYNNHEGGGSFQAVEQVKFLKKLFEKGGPGSGGAGSPGSAGGPGSAQSQLPDKHSGLHERAPQRYGSGTAEIQSSKNPNPHPQRSWTNGSGHNHMQERYTDPQHSPSVNGLGSGHDHKNQKETHQRHAASSHHHHHH
100% activity (hydrolase activity added to the tube) ([1]; tube containing ~20 mg of hair, not subjected to washes): 125 µmol/min

B2: SEQ ID NO: 314: untargeted S54V variant of the aryl esterase from Mycobacterium smegmatis (protein, listed as Mycobacterium smegmatis)
chain: MAKRILCFGDSLTWGWVPVEDGAPTERFAPDVRWTGVLAQQLGADFEVIEEGLVARTTNIDDPTDPRLNGASYLPSCLATHLPLDLVIIMLGTNDTKAYFRRTPLDIALGMSVLVTQVLTSAGGVGTTYPAPKVLVVSPPPLAPMPHPWFQLIFEGGEQKTTELARVYSALASFMKVPFFDAGSVISTDGVDGIHFTEANNRDLGVALAEQVRSLL
OD 405nm [2, 4]: 0.003
Peracetic acid [2, 4]: 2.60 ppm

B3: CPAH-HC263: fusion peptide C277S-HC263 further comprising a D128G substitution (protein)
chain: MAFFDLPLEELKKYRPERYEEKDFDEFWEETLAESEKFPLDPVFERMESHLKTVEAYDVTFSGYRGQRIKGWLLVPKLEEEKLPCVVQYIGYNGGRGFPHDWLFWPSMGYICFVMDTRGQGSGWLKGGTPDYPEGPVDPQYPGFMTRGILDPRTYYYRRVFTDAVRAVEAAASFPQVDQERIVIAGGSQGGGIALAVSALSKKAKALLCDVPFLCHFRRAVQLVDTHPYAEITNFLKTHRDKEEIVFRTLSYFDGVNFAARAKIPALFSVGLMDNISPPSTVFAAYNYYAGPKEIRIYPYNNHEGGGSFQAVEQVKFLKKLFEKGGPGSGGAGSPGSAGGPGSPSAQSQLPDKHSGLHERAPQRYGPEPEPEPEPIPEPPKEAPVVIEKPKPKPKPKPKPPAHDHKNQKETHQRHAAGSGGGGSPHHHHHH
Bleaching Start ([3]; 1.0 mg/mL enzyme pH 6): 9th
Tenacity @ max ([3]; 1.0 mg/mL enzyme pH 6, 100 mM triacetin, 250 mM H2O2, up to 13 repeats): 0.6 gf/den

B4: SEQ ID NO: 341: C277S variant of Thermotoga maritima perhydrolase fused to hair binding domain HC263KtoR via a flexible linker (protein)
chain: MAFFDLPLEELKKYRPERYEEKDFDEFWEETLAESEKFPLDPVFERMESHLKTVEAYDVTFSGYRGQRIKGWLLVPKLEEEKLPCVVQYIGYNGGRGFPHDWLFWPSMGYICFVMDTRGQGSGWLKGDTPDYPEGPVDPQYPGFMTRGILDPRTYYYRRVFTDAVRAVEAAASFPQVDQERIVIAGGSQGGGIALAVSALSKKAKALLCDVPFLCHFRRAVQLVDTHPYAEITNFLKTHRDKEEIVFRTLSYFDGVNFAARAKIPALFSVGLMDNISPPSTVFAAYNYYAGPKEIRIYPYNNHEGGGSFQAVEQVKFLKKLFEKGGPGSGGAGSPGSAGGPGSPSAQSQLPDRHSGLHERAPQRYGPEPEPEPEPIPEPPREAPVVIERPRPRPRPRPRPPAHDHRNQRETHQRHAAGSGGGGSPHHHHHH
ppm PAA ([2]; 5% PEG-80 sorbitan laurate pH 6.0, binding 10 min, PAA at 10 minutes): 958 ppm
